The experiment addresses Recombinant His6-tagged UVI31+ protein from C. reinhardtii (C. reinhardtii). As to the kind of experiment: SEC; gel filtration on a Sephadex G75 column in 50 mM sodium phosphate (pH 7.6), 50 mM NaCl; major peak at 87 ml (monomer), small hump at 68-75 ml (dimer). Background: SEC sorts molecules by how far they enter the pores of the column.

As to “Recombinant His6-tagged UVI31+ protein from C. reinhardtii (natural protein)”, the stoichiometry N turned out to be 2.

What is called stoichiometry N is a count of units in the complex or per binding partner.

For the origin of these results see paper PMC3524116.
